Data: FireProtDB (doi:10.1529/biophysj.106.103804)

Conditions: Bacillus licheniformis, CD, reversible: Yes
[1] = pH 6, Thermal, Sodium phosphate Sodium fluoride 25 mM 100 mM
[2] = pH 6.5, Thermal, Sodium phosphate Sodium fluoride 25 mM 100 mM
[3] = pH 7, 22 °C, Urea, Fluorescence, Thiol reactivity, Sodium phosphate 100 mM, transition: 3
[4] = pH 7, Thermal, Sodium phosphate Sodium fluoride 25 mM 100 mM
[5] = pH 7.5, Thermal, Sodium phosphate Sodium fluoride 25 mM 100 mM
[6] = pH 8, Thermal, Sodium phosphate Sodium fluoride 25 mM 100 mM

Sequence: MKLWFSTLKLKKAA [wild type]
- heat capacity change of unfolding [1]: 3.9 kcal/mol/K
- unfolding enthalpy (van 't Hoff) [1]: 141 kcal/mol
- unfolding free energy [1]: 7.2 kcal/mol
- Tm [2]: 67.9 °C
- unfolding enthalpy (van 't Hoff) [2]: 147 kcal/mol
- denaturant midpoint (higher = more stable) [3]: 3 M
- unfolding free energy [3]: 5.2 kcal/mol
- Tm [4]: 67 °C
- unfolding enthalpy (van 't Hoff) [4]: 140 kcal/mol
- Tm [5]: 66.5 °C
- unfolding enthalpy (van 't Hoff) [5]: 163 kcal/mol
- Tm [6]: 65.1 °C
- unfolding enthalpy (van 't Hoff) [6]: 133 kcal/mol
